Results taken from patent publication US9644034B2, “Anti-RSPO2 antibodies and uses thereof” (OncoMed Pharmaceuticals, Inc., priority 2011, dated 2017).

Key:
RSPO = assay: FACS RSPO binding activity of conditioned media from HEK-293 cells cotransfected with candidate humanized chains; conditions: conditioned media of cotransfected HEK-293 cells
Procedure: The functionality of each candidate variant humanized heavy chain and light chain was tested by cotransfection into mammalian cells. Each candidate humanized heavy chain described above was cotransfected into HEK-293 cells with the murine light chain cDNA, and conditioned media was assayed by FACS for RSPO binding activity. […] The 89M5-H2 humanized heavy chain was cotransfected into HEK-293 cells with each of the candidate humanized light chains, and conditioned media was again assayed for antigen binding by FACS. […] The 130M23-H1 humanized heavy chain was cotransfected into HEK-293 cells with each of the candidate humanized light chains, and conditioned media was again assayed for antigen binding by FACS.

[1] = test system: RSPO1-induced β-catenin signaling; assay: TOPflash luciferase assay in HEK-293 cells, Wnt3a plus human RSPO1; assay type: cell-based; conditions: Wnt3a 5 ng/ml, RSPO1 10 ng/ml; antibodies 10 to 0.625 μg/ml
Procedure: HEK-293 cells were transfected with a 6×TCF-luciferase reporter vector (TOPflash, Millipore, Billerica, Mass.). After 24-48 hrs, the transfected HEK-293 cells were incubated with a combination of Wnt3a (5 ng/ml) and human RSPO1 (10 ng/ml, R&D BioSystems) in the presence of anti-RSPO1 antibodies 89M2, 89M4, 89M5, 89M7, 89M19, and 89M25, or 2 irrelevant control antibodies 254M14 and 254M26 (2-fold dilutions at 10 μg/ml to 0.625 μg/ml). The cells were incubated for 16 hours and luciferase activity was measured using Steady-Glo® Luciferase Assay System according to the manufacturer's instructions (Promega, Madison, Wis.).

binding of RSPO1 to LGR5 = biological target: T1, binding of RSPO1 to LGR5 (Homo sapiens, UniProt Q2MKA7); assay: FACS: blocking of soluble RSPO1-Fc binding to LGR5 on HEK-293 cells; conditions: RSPO1-Fc 10 μg/ml, antibodies 10 μg/ml
T1 construct: full-length human RSPO1, RSPO2, RSPO3 and RSPO4 were ligated in-frame to a human Fc region; made in house; host or cells: RSPO1-Fc: insect cells (baculovirus); LGR5 construct: transiently transfected HEK-293
Procedure: HEK-293 cells were transiently transfected with the FLAG-LGR5-CD4TM-GFP construct (previously described in Example 2). After 48 hours, transfected cells were suspended in ice cold PBS containing 2% FBS and heparin and incubated on ice in the presence of RSPO1-Fc protein (10 μg/ml) and antibodies 89M2, 89M4, 89M5, 89M7, 89M19 or 89M25 (10 μg/ml). A second incubation with 100 μl PE-conjugated anti-human Fc secondary antibody was performed to detect cells bound by the RSPO1-Fc fusion protein. The cells were analyzed on a FACSCalibur instrument (BD Biosciences, San Jose, Calif.) and the data was processed using FlowJo software.

human RSPO1 = biological target: T2, human RSPO1 (Homo sapiens, UniProt Q2MKA7); assay: FACS screening of hybridoma supernatants on HEK-293 cells expressing FLAG-RSPO1furin-CD4TM-GFP; assay type: binding
T2 construct: followed by the two furin-like domains of RSPO1 (aa 34-135); expressed in transfected cells; host or cells: HEK-293
Description: Antibodies were generated against recombinant human RSPO1 protein amino acids 31-263 (R&D Systems, Minneapolis, Minn.). Mice (n=3) were immunized with RSPO1 protein using standard techniques. Sera from individual mice were screened against RSPO1 approximately 70 days after initial immunization using FACS analysis. The animal with the highest antibody titer was selected for final antigen boost after which spleen cells were isolated for hybridoma production. SP2/0 cells were used as fusion partners for the mouse spleen cells. Hybridoma cells were plated at 1 cell per well in 96 well plates, and the supernatants were screened against human RSPO1 by FACS analysis.
For FACS screening of anti-RSPO1 antibodies a chimeric fusion protein enabling cell surface expression of the N-terminal furin-like domains of human RSPO1 was constructed.
HEK-293 cells were transfected with FLAG-RSPOlfurin-CD4TM-GFP. After 48 hours, transfected cells were suspended in ice cold PBS containing 2% FBS and heparin and incubated on ice in the presence of 50 μl of hybridoma supernatants for 30 minutes. A second incubation with 100 μl PE-conjugated […] secondary antibody was performed to detect cells bound by antibody. Cells were incubated with an anti-FLAG antibody (Sigma-Aldrich, St. Louis, Mo.) as a positive control and an anti-PE antibody as a negative control. The cells were analyzed on a FACSCalibur instrument (BD Biosciences, San Jose, Calif.) and the data was processed using FlowJo software.

PN7 tumors = assay: Serial transplantation of cells from treated PN7 tumors (tumorigenicity); assay type: in vivo, NOD-SCID mice; conditions: 90 cells injected, 40 days growth with no treatment; vs control antibody
Procedure: The PN7 tumors described above were processed to yield single cell suspensions. Mouse cells were depleted from the cell mixtures using biotinylated anti-H2K^d and anti-CD45 antibodies and streptavidin-conjugated magnetic beads. The remaining human tumor cells were serially transplanted into a new cohort of mice. 90 tumor cells from each treatment group were injected into the flanks of NOD-SCID mice (n=10 mice per group). Tumors were allowed to grow for 40 days with no treatment and tumor volumes were measured with electronic calipers.

[2] = test system: PN7 pancreatic tumor cells; assay: PN7 pancreatic tumor xenograft growth in NOD/SCID mice; assay type: in vivo; conditions: vs control antibody; 130M23 10 mg/kg, 18R5 20 mg/kg, gemcitabine once a week, intraperitoneal
Procedure: Dissociated PN7 pancreatic tumor cells (1×10^5cells) were injected subcutaneously into the flanks of 6-8 week old NOD/SCID mice. Tumors were allowed to grow for 25 days until they reached an average volume of 130 mm^3. The mice were randomized (n=10 per group) and treated with anti-RSPO2 antibody 130M23, anti-FZD antibody 18R5, gemcitabine, a combination of 130M23 and gemcitabine, a combination of 18R5 and gemcitabine, a combination of 130M23 and 18R5, a combination of 130M23, 18R5 and gemcitabine, or control antibody 1B7.11. Anti-RSPO2 antibody 130M23 was dosed at 10 mg/kg once a week, anti-FZD antibody 18R5 was dosed at 20 mg/kg once a week, and gemcitabine was dosed at […] once a week. Administration of the antibodies and gemcitabine was performed via injection into the intraperitoneal cavity. Tumor growth was monitored and tumor volumes were measured with electronic calipers at specific time points. Data are expressed as mean±S.E.M. A parallel set of experiments included mice treated with a FZD8-Fc soluble receptor (10 mg/kg) in combination with gemcitabine and FZD8-Fc in combination with 130M23 and gemcitabine.

T1 sequence (Q2MKA7 21-263): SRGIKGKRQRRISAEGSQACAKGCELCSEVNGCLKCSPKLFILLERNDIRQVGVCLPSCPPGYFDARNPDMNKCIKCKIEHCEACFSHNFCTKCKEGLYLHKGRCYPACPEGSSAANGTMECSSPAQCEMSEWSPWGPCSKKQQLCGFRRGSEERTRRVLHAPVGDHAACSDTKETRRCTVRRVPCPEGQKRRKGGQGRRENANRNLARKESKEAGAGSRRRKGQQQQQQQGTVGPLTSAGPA
T2 sequence (Q2MKA7 34-135): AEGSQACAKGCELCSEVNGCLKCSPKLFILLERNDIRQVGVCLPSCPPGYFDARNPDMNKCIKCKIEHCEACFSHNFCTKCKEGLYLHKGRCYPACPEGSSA

B1: 89M5-L2: humanized 89M5 light chain variant (SEQ ID NO:69) (protein)
light: DIQMTQSPSSLSASVGDRVTITCKASQDVIFAVAWYQQKPGKAPKLLIYWASTRHTGVPSRFSGSGSGTDYTLTISSLQPEDFATYYCQQHYSTPWTFGGGTKVEIKRTVAAPSVFIFPPSDEQLKSGTASVVCLLNNFYPREAKVQWKVDNALQSGNSQESVTEQDSKDSTYSLSNTLTLSKADYEKHKVYACEVTHQGLSSPVTKSFNRGEC
modifications: h89M5-H2L2 Light chain amino acid sequence
binding by FACS among candidate humanized chain variants (RSPO): most robust binding

B2: 130M23-L2: humanized 130M23 light chain variant (SEQ ID NO:71) (protein)
light: DIQMTQSPSSLSASVGDRVTITCKASQDVSSAVAWYQQKPGKAPKLLIYWASTRHTGVPSRFSGSGSGTDFTLTISSVQAEDFATYYCQQHYSTPWTFGQGTKVEIKRTVAAPSVFIFPPSDEQLKSGTASVVCLLNNFYPREAKVQWKVDNALQSGNSQESVTEQDSKDSTYSLSNTLTLSKADYEKHKVYACEVTHQGLSSPVTKSFNRGEC
modifications: h130M23-H1L2 Light chain amino acid sequence
binding by FACS among candidate humanized chain variants (RSPO): most robust binding

B3: 89M5-H2: humanized 89M5 heavy chain variant (SEQ ID NO:68) (antibody)
heavy: QVQLVQSGAEVKKPGASVKVSCKTSGYTFTGYTMHWVRQAPGQRLEWMGGINPNNGGTTYNQNFKGRVTITRDTSASTAYMELSSLRSEDTAVYYCARKEFSDGYYFFAYWGQGTLVTVSSASTKGPSVFPLAPCSRSTSESTAALGCLVKDYFPEPVTVSWNSGALTSGVHTFPAVLQSSGLYSLSSVVTVPSSNFGTQTYTCNVDHKPSNTKVDKTVERKCCVECPPCPAPPVAGPSVFLFPPKPKDTLMISRTPEVTCVVVDVSHEDPEVQFNWYVDGVEVHNAKTKPREEQFNSTFRVVSVLTVVHQDWLNGKEYKCKVSNKGLPAPIEKTISKTKGQPREPQVYTLPPSREEMTKNQVSLTCLVKGFYPSDIAVEWESNGQPENNYKTTPPMLDSDGSFFLYSKLTVDKSRWQQGNVFSCSVMHEALHNHYTQKSLSLSPGK
modifications: h89M5-H2L2 Heavy chain amino acid sequence
binding by FACS among candidate humanized chain variants (RSPO): most robust binding

B4: 89M2: anti-RSPO1 monoclonal antibody; same heavy and light chain variable regions as 89M5 (antibody, V domains shown)
VH: EVQLQQSGPELVKPGASVKISCKTSGYTFTGYTMHWVRQSHGKTLEWIGGINPNNGGTTYNQNFKGKATLTVEKSSTTAYLELRSLTSEDSALYYCARKEFSDGYYFFAYWGQGTLVTVSA
VL: DIVMTQSHKFMSTSVGDRVNITCKASQDVIFAVAWYQQKPGQSPKLLIYWASTRHTGVPDRFTGSVSGTDYTLTISSVQAEDLALYYCQQHYSTPWTFGGGTKLEIK
blocking of RSPO1-induced β-catenin signaling [1]: blocked | blocking of binding of RSPO1 to LGR5 (binding of RSPO1 to LGR5): blocked | binding to RSPO1 (FACS) (human RSPO1): bound

B5: 89M4: anti-RSPO1 monoclonal antibody; same heavy and light chain variable regions as 89M5 (antibody, V domains shown)
VH: EVQLQQSGPELVKPGASVKISCKTSGYTFTGYTMHWVRQSHGKTLEWIGGINPNNGGTTYNQNFKGKATLTVEKSSTTAYLELRSLTSEDSALYYCARKEFSDGYYFFAYWGQGTLVTVSA
VL: DIVMTQSHKFMSTSVGDRVNITCKASQDVIFAVAWYQQKPGQSPKLLIYWASTRHTGVPDRFTGSVSGTDYTLTISSVQAEDLALYYCQQHYSTPWTFGGGTKLEIK
blocking of RSPO1-induced β-catenin signaling [1]: blocked | blocking of binding of RSPO1 to LGR5 (binding of RSPO1 to LGR5): blocked | binding to RSPO1 (FACS) (human RSPO1): bound

B6: 18R5: anti-FZD antibody, Wnt pathway inhibitor (antibody, chains of the INN, looked up, V domains shown)
VH: EVQLVESGGGLVQPGGSLRLSCAASGFTFSHYTLSWVRQAPGKGLEWVSVISGDGSYTYYADSVKGRFTISSDNSKNTLYLQMNSLRAEDTAVYYCARNFIKYVFANWGQGTLVTVSS
VL: DIELTQPPSVSVAPGQTARISCSGDNIGSFYVHWYQQKPGQAPVLVIYDKSNRPSGIPERFSGSNSGNTATLTISGTQAEDEADYYCQSYANTLSLVFGGGTKLTVL
tumorigenicity of cells isolated from treated mice (PN7 tumors): greatly decreased tumorigenicity | reduction in tumor growth [2]: approximately 55%

B7: 130M23-H1: humanized 130M23 heavy chain variant (SEQ ID NO:70) (antibody)
heavy: EVQLVESGGGLVKPGGSLRLSCAASGFTFSSYAMSWVRQAPGKGLEWVSSISSGGSTYYPDSVKGRFTISRDNAKNSLYLQMNSLRAEDTAVYYCARGGDPGVYNGDYEDAMDYWGQGTTVTVSSASTKGPSVFPLAPCSRSTSESTAALGCLVKDYFPEPVTVSWNSGALTSGVHTFPAVLQSSGLYSLSSVVTVPSSNFGTQTYTCNVDHKPSNTKVDKTVERKCCVECPPCPAPPVAGPSVFLFPPKPKDTLMISRTPEVTCVVVDVSHEDPEVQFNWYVDGVEVHNAKTKPREEQFNSTFRVVSVLTVVHQDWLNGKEYKCKVSNKGLPAPIEKTISKTKGQPREPQVYTLPPSREEMTKNQVSLTCLVKGFYPSDIAVEWESNGQPENNYKTTPPMLDSDGSFFLYSKLTVDKSRWQQGNVFSCSVMHEALHNHYTQKSLSLSPGK
modifications: h130M23-H1L2 Heavy chain amino acid sequence
binding by FACS among candidate humanized chain variants (RSPO): most robust binding
